{"source": "paper PMC7988011", "about": "“NAC blocks Cystatin C amyloid complex aggregation in a cell system and in skin of HCCAA patients” (Nature Communications, 2021)", "key": {"[1]": {"molecular_target": "P01034", "experiment": "non-reducing SDS-PAGE with Western blot; supernatants and cellular extracts incubated with reduced glutathione (3 mM) at 37 °C before electrophoresis; HMW species quantitated by densitometry", "conditions": "other: non-reducing SDS-PAGE with Western blot"}, "[2]": {"molecular_target": "the molecule itself", "experiment": "non-reducing SDS-PAGE with Western blot; lysates (1% NP-40 buffer) and supernatants of stable HEK-293T cells; 2% SDS sample buffer without reducing agent, not heated; NuPAGE 4-12% Bis-Tris; blotted with anti-cystatin C MAB1196"}}, "note": "Values joined by “and” are separate entries in the source; they are usually repeats but may differ in a detail not shown here. Equal entries are not always repeated.", "data": [{"protein": "L68Q variant of human cystatin C (natural protein, UniProt P01034 27-146, looked up, Vector pBABE-CMV-Puro; also called L68Q-hCC; hCC L68Q) SSPGKPPRLVGGPMDASVEEEGVRRALDFAVGEYNKASNDMYHSRALQVVRARKQIVAGVNYFLDVEQGRTTCTKTQPNLDNCPFHDQPHLKRKAFCSFQIYAVPWQGTMTLSKSTCQDA", "values": [{"measurement": "percent reduction of HMW species with 3 mM GSH (secreted fraction)", "setting": "[1]", "value": "≈90% reduction of the HMW in the secreted fraction"}, {"measurement": "stoichiometry N", "setting": "[2]", "value": "2 and 3 and 4"}]}]}
